{
  "source": "paper PMC6952583",
  "about": "(Chembiochem : a European journal of chemical biology, 2019)",
  "origin": "cited, not measured here",
  "biological_target": "ComD2 receptor (Streptococcus pneumoniae serotype 4, UniProt A0A0H2US84)",
  "details": "read-out: ComD2 EC50; TIGR4pcomX::lacZ reporter strain; ref [20]",
  "data": [
    {"substance": "CSP2(15): truncated version of CSP2, starting scaffold (EMRISRIILDFLFLR)", "values": [
      {"measurement": "EC50", "value": 21.9, "unit": "nM"}
    ]}
  ]
}
